Experimental data from publication PMC12365614, “Bipartite chromatin recognition by Hop1 from two diverged Holozoa”.
Numbering of substitutions follows the chain as printed.

T1: P. miniata Hop1 CBR R463A (Patiria miniata, UniProt A0A913ZKG6 352-499, R463A)
T1 sequence: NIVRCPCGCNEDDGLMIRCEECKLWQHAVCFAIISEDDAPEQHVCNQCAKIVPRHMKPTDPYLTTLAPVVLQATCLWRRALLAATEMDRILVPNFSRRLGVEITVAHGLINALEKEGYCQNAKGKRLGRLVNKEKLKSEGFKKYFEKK

T2: P. miniata Hop1 CBR WT (GST) (Patiria miniata, UniProt A0A913ZKG6 352-499)
T2 sequence: T1 sequence with A112R

T3: P. miniata Hop1 CBR R477A (Patiria miniata, UniProt A0A913ZKG6 352-499, R477A)
T3 sequence: T1 sequence with A112R, R126A

B1: 20-bp FAM duplex (dsDNA)
DNA 1: CTTATATCTGAATAGTCAGT
DNA 2: ACTGACTATTCAGATATAAG

Columns and labels:
[1] = test system: S. mansoni Hop1 CBR WT (Schistosoma mansoni); test: fluorescence polarization; details: FP: 20 mM Tris-HCl pH 8, 100 mM Na glutamate, 5 mM MgCl2, 3% glycerol, 0.5 mM BME, 50 nM DNA, 4 C 30 min; EMSA: 20 mM Hepes pH 7, 100 mM NaCl, 100 uM ZnCl2, 10%
[2] = biological target: T1, P. miniata Hop1 CBR R463A; test: fluorescence polarization; FP: 20 mM Tris-HCl pH 8, 100 mM Na glutamate, 5 mM MgCl2, 3% glycerol, 0.5 mM BME, 50 nM DNA, 4 C 30 min; EMSA: 20 mM Hepes pH 7, 100 mM NaCl, 100 uM ZnCl2, 10% glycerol, 2 mM BME, 4 C 60 min; details: protein: recombinant; tags: N-terminal His6-GST (uncleaved); label: 5' 6-FAM on strand 1; blunt
[3] = biological target: T2, P. miniata Hop1 CBR WT (GST); test: as above; details: protein: recombinant; tags: N-terminal His6-GST (uncleaved); label: 5' 6-FAM on strand 1; blunt
[4] = biological target: T3, P. miniata Hop1 CBR R477A; test: as above; details: protein: recombinant; tags: N-terminal His6-GST (uncleaved); label: 5' 6-FAM on strand 1; blunt

Molecule | Kd [1] | binding result [2] | Kd [3] | binding result [4]
CTTATATCTGAATAGTCAGT (double strand) [20-bp FAM duplex] | 16 µM |  |  | 
B1 |  | no binding | 16 µM | no binding
